Results on 67 sequences are retold here after the supplement of paper PMC10724198.

± gives the standard deviation of the averaged measurements.

The series relates to Saccharomyces cerevisiae. As to the kind of experiment: protein stability index of tFT-peptide fusion (C-terminal peptide) (PSI (0-1 scale)); higher = more stable (slower turnover). The note with it: temperature: 30 C. On the procedure:
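MPS profiling in S. cerevisiae of the yeast C-terminome library: the last 12 aa of each annotated ORF are fused to the C-terminus of a sfGFP-mCherry timer, after a GGGS linker. Cells are FACS-sorted into 8 mCherry/sfGFP bins and deep-sequenced. PSI runs from 0 (unstable) to 1 (stable); wild type and das1Δ backgrounds, two technical replicates each.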

Setting [1] is: genetic background: das1 deletion.

Take RNYQKKGNKGCI [YCL076W C-terminal 12 aa]: the protein stability index reads like this: under setting [1], 0.687 ± 0.024; (genetic background: wild type) 0.679 ± 0.034.

For the sequence “RPIFPFLIVLIS [YBR196C-A C-terminal 12 aa]”, the protein stability index reads like this: under setting [1], 0.16 ± 0.013; (genetic background: wild type) 0.1088 ± 0.00092.

Regarding RPPRTRIPRLRR [YKR047W C-terminal 12 aa], the protein stability index runs as follows: under setting [1], 0.7572 ± 0.0045; (genetic background: wild type) 0.708 ± 0.036.

RPSTNDPTSCCS [YPT52 C-terminal 12 aa]: the protein stability index runs as follows: under setting [1], 0.697 ± 0.025; (genetic background: wild type) 0.705 ± 0.03.

As for RQRQLKSPQNVL [TYW3 C-terminal 12 aa], the protein stability index was determined as 0.714 ± 0.017 under setting [1] and 0.696 ± 0.046 (genetic background: wild type).

With RRLDDLETTMRM [SFH1 C-terminal 12 aa], the protein stability index by setting is: under setting [1], 0.66 ± 0.015; (genetic background: wild type) 0.662 ± 0.029.

On to “RRLKIQLCCISK [YHR180C-B C-terminal 12 aa]”, for which the protein stability index reads like this: under setting [1], 0.658 ± 0.019; (genetic background: wild type) 0.6544 ± 0.004.

RRQSPPGYYVIR [YLR311C C-terminal 12 aa] showed a protein stability index under setting [1] of 0.747 ± 0.0064 and a protein stability index (genetic background: wild type) of 0.708 ± 0.027.

On to RRSQLREHACVD [LDB7 C-terminal 12 aa], for which the protein stability index turned out to be 0.707 ± 0.013 under setting [1] and 0.7096 ± 0.0049 (genetic background: wild type).

As to RRTQAQSRSRKA [PKR1 C-terminal 12 aa], the protein stability index runs as follows: under setting [1], 0.675 ± 0.0088; (genetic background: wild type) 0.706 ± 0.037.

Consider “RSIIKLPVTKGL [YBL008W-A C-terminal 12 aa]”, for which the protein stability index under setting [1] came to 0.6946 ± 0.0058 and the protein stability index (genetic background: wild type) turned out to be 0.6596 ± 0.0024.

For RSPKGNSIIEEI [BTN2 C-terminal 12 aa], the protein stability index turned out to be 0.695 ± 0.026 under setting [1] and 0.655 ± 0.02 (genetic background: wild type).

On to RSRNKALVSVST [VPS63 C-terminal 12 aa], for which the protein stability index by setting is: under setting [1], 0.6496 ± 0.0045; (genetic background: wild type) 0.667 ± 0.049.

For the sequence RVPKKNGKLSKK [PDR5 C-terminal 12 aa], the protein stability index amounted to 0.7012 ± 0.0033 under setting [1] and 0.704 ± 0.055 (genetic background: wild type).

As for RYRNQIDDFDFS [IMP3 C-terminal 12 aa], the protein stability index is 0.71 ± 0.034 under setting [1] and 0.754 ± 0.097 (genetic background: wild type).

In the case of SAAIGAQSGLYI [PBA1 C-terminal 12 aa], the protein stability index runs as follows: under setting [1], 0.671 ± 0.021; (genetic background: wild type) 0.67 ± 0.0091.

SCQRILQELEKP [CAK1 C-terminal 12 aa]: the protein stability index was 0.689 ± 0.0094 under setting [1] and 0.705 ± 0.055 (genetic background: wild type).

SDILKYILLGSN [SNF4 C-terminal 12 aa]: the protein stability index turned out to be 0.683 ± 0.0085 under setting [1] and 0.6783 ± 0.0061 (genetic background: wild type).

As for SDVAKQLASFGY [RPL16B C-terminal 12 aa], the protein stability index is, setting by setting: under setting [1], 0.7021 ± 0.0051; (genetic background: wild type) 0.6663 ± 0.00093.

SEEKSNLIEFEA [MDR1 C-terminal 12 aa]: the protein stability index was found to be 0.705 ± 0.013 under setting [1] and 0.6734 ± 0.0028 (genetic background: wild type).

Regarding SEFPTCCDQAAI [SLZ1 C-terminal 12 aa], the protein stability index was determined as 0.707 ± 0.01 under setting [1] and 0.721 ± 0.0094 (genetic background: wild type).

Regarding SGGFGGSGSGFI [FUB1 C-terminal 12 aa], the protein stability index by setting is: under setting [1], 0.6972 ± 0.0036; (genetic background: wild type) 0.691 ± 0.013.

On to “SGLIIAEAGIGG [YAL031W-A C-terminal 12 aa]”, for which the protein stability index by setting is: under setting [1], 0.7001 ± 0.005; (genetic background: wild type) 0.7129 ± 0.0038.

For SGVGAALCALVA [EMI2 C-terminal 12 aa], the protein stability index is, setting by setting: under setting [1], 0.583 ± 0.0075; (genetic background: wild type) 0.602 ± 0.025.

In the case of SGYSFNGSYGKS [WHI4 C-terminal 12 aa], the protein stability index turned out to be 0.671 ± 0.0029 under setting [1] and 0.659 ± 0.022 (genetic background: wild type).

Regarding SHLFFQLSCSLY [YLL044W C-terminal 12 aa], the protein stability index amounted to 0.685 ± 0.038 under setting [1] and 0.736 ± 0.069 (genetic background: wild type).

With SIDETELAKWNE [PEP3 C-terminal 12 aa], the protein stability index reads like this: under setting [1], 0.734 ± 0.063; (genetic background: wild type) 0.7 ± 0.048.

The sequence SIGLTNLFLYRV [YDR010C C-terminal 12 aa] had a protein stability index under setting [1] of 0.715 ± 0.0083 and a protein stability index (genetic background: wild type) of 0.681 ± 0.01.

Take SIRKKSKYAYAA [TPO1 C-terminal 12 aa]: the protein stability index came to 0.703 ± 0.012 under setting [1] and 0.642 ± 0.021 (genetic background: wild type).

As for SKASLINKLIGN [NTR2 C-terminal 12 aa], the protein stability index reads like this: under setting [1], 0.685 ± 0.011; (genetic background: wild type) 0.7 ± 0.013.

Turning to SKLNNGEIIVID [SRS2 C-terminal 12 aa], the protein stability index reads like this: under setting [1], 0.685 ± 0.0081; (genetic background: wild type) 0.702 ± 0.047.

On to SKNILSFFTRKK [RAD30 C-terminal 12 aa], for which the protein stability index was determined as 0.774 ± 0.025 under setting [1] and 0.673 ± 0.0077 (genetic background: wild type).

In the case of SKNVPALHMGGL [PBS2 C-terminal 12 aa], the protein stability index reads like this: under setting [1], 0.6847 ± 0.0027; (genetic background: wild type) 0.6721 ± 0.0054.

As to SKPALGSCLYEL [GAL1 C-terminal 12 aa], the protein stability index runs as follows: under setting [1], 0.6989 ± 0.0023; (genetic background: wild type) 0.687 ± 0.012.

For SLGGDVHSRRCS [ROQ1 C-terminal 12 aa], the protein stability index reads like this: under setting [1], 0.7013 ± 0.0028; (genetic background: wild type) 0.662 ± 0.018.

Regarding SLKTFINDVLSF [SLS1 C-terminal 12 aa], the protein stability index is, setting by setting: under setting [1], 0.7066 ± 0.0021; (genetic background: wild type) 0.717 ± 0.029.

Regarding SLLVEDGGNPTA [YPL150W C-terminal 12 aa], the protein stability index reads like this: under setting [1], 0.695 ± 0.007; (genetic background: wild type) 0.69 ± 0.026.

Take SLMIFSSFFLYN [YOR139C C-terminal 12 aa]: the protein stability index was 0.6872 ± 0.001 under setting [1] and 0.479 ± 0.02 (genetic background: wild type).

For the sequence SLRGCKSVFRRI [HMI1 C-terminal 12 aa], the protein stability index under setting [1] is 0.663 ± 0.0076 and the protein stability index (genetic background: wild type) is 0.741 ± 0.029.

Consider SLSTFPFVYKYL [EST3 C-terminal 12 aa], for which the protein stability index was 0.749 ± 0.019 under setting [1] and 0.127 ± 0.0095 (genetic background: wild type).

As to SNEHSSENTAGP [STE3 C-terminal 12 aa], the protein stability index under setting [1] worked out at 0.696 ± 0.013 and the protein stability index (genetic background: wild type) came to 0.684 ± 0.014.

The sequence SNLALAGGAFRP [TAF5 C-terminal 12 aa] registered a protein stability index under setting [1] of 0.711 ± 0.0013 and a protein stability index (genetic background: wild type) of 0.688 ± 0.016.

On to SPEIDDSSLACH [CTR2 C-terminal 12 aa], for which the protein stability index is 0.707 ± 0.0085 under setting [1] and 0.6821 ± 0.0044 (genetic background: wild type).

Regarding SQMRPPSQGDKI [DAL82 C-terminal 12 aa], the protein stability index is 0.714 ± 0.024 under setting [1] and 0.675 ± 0.023 (genetic background: wild type).

As to SQMTKKRKTKKE [APN1 C-terminal 12 aa], the protein stability index was 0.72 ± 0.015 under setting [1] and 0.786 ± 0.064 (genetic background: wild type).

In the case of SQNGHTSGSENI [LSP1 C-terminal 12 aa], the protein stability index under setting [1] was found to be 0.6941 ± 0.005 and the protein stability index (genetic background: wild type) amounted to 0.699 ± 0.03.

For SQSFNPLESVQE [YPL229W C-terminal 12 aa], the protein stability index came out at 0.7038 ± 0.0039 under setting [1] and 0.709 ± 0.1 (genetic background: wild type).

In the case of SRIKNACLHRMN [RRN7 C-terminal 12 aa], the protein stability index runs as follows: under setting [1], 0.6966 ± 0.0047; (genetic background: wild type) 0.681 ± 0.035.

SRVYAYYLTHEK [NNT1 C-terminal 12 aa] yielded a protein stability index under setting [1] of 0.666 ± 0.007 and a protein stability index (genetic background: wild type) of 0.67 ± 0.018.

Consider SSFEKFQYYSKA [AGP2 C-terminal 12 aa], for which the protein stability index turned out to be 0.72 ± 0.024 under setting [1] and 0.688 ± 0.049 (genetic background: wild type).

For SSLMVIHPLDDT [MID1 C-terminal 12 aa], the protein stability index by setting is: under setting [1], 0.6918 ± 0.0012; (genetic background: wild type) 0.695 ± 0.006.

Sequence SSSYNYNVHKLA [YDR278C C-terminal 12 aa] had a protein stability index under setting [1] of 0.6925 ± 0.0039 and a protein stability index (genetic background: wild type) of 0.134 ± 0.013.

Take STDEKRLVMSLK [IMH1 C-terminal 12 aa]: the protein stability index by setting is: under setting [1], 0.692 ± 0.042; (genetic background: wild type) 0.709 ± 0.014.

Consider STDEKTSENETL [YPR071W C-terminal 12 aa], for which the protein stability index stood at 0.6746 ± 0.0056 under setting [1] and 0.656 ± 0.024 (genetic background: wild type).

STICRDIILIPN [CHK1 C-terminal 12 aa]: the protein stability index is 0.688 ± 0.03 under setting [1] and 0.6527 ± 0.0013 (genetic background: wild type).

With STKFEEDQVAPL [ICP55 C-terminal 12 aa], the protein stability index reads like this: under setting [1], 0.679 ± 0.007; (genetic background: wild type) 0.686 ± 0.029.

STSDSENFMQQH [RPI1 C-terminal 12 aa]: the protein stability index amounted to 0.705 ± 0.013 under setting [1] and 0.729 ± 0.049 (genetic background: wild type).

Take SVFIASLLLAII [FLO1 C-terminal 12 aa]: the protein stability index worked out at 0.31 ± 0.0059 under setting [1] and 0.323 ± 0.021 (genetic background: wild type).

For SVLTGGAVWMLF [DFG5 C-terminal 12 aa], the protein stability index is, setting by setting: under setting [1], 0.7186 ± 0.0037; (genetic background: wild type) 0.652 ± 0.013.

Consider TAIAHRAYIQLK [RSM7 C-terminal 12 aa], for which the protein stability index was found to be 0.709 ± 0.035 under setting [1] and 0.685 ± 0.033 (genetic background: wild type).

Consider TALLIDNILTCK [MRM1 C-terminal 12 aa], for which the protein stability index turned out to be 0.7 ± 0.021 under setting [1] and 0.694 ± 0.048 (genetic background: wild type).

TALLVSYCHLCV [YMR122C C-terminal 12 aa]: the protein stability index was found to be 0.625 ± 0.0077 under setting [1] and 0.6243 ± 0.0048 (genetic background: wild type).

Consider TAREKKNEMFSF [YCL023C C-terminal 12 aa], for which the protein stability index was 0.69596 ± 0.00065 under setting [1] and 0.711 ± 0.06 (genetic background: wild type).

For the sequence TASTSNSRNQTM [SPO71 C-terminal 12 aa], the protein stability index was determined as 0.701 ± 0.03 under setting [1] and 0.687 ± 0.038 (genetic background: wild type).

Regarding TASYLKDAVYLH [ATP6 C-terminal 12 aa], the protein stability index runs as follows: under setting [1], 0.699 ± 0.031; (genetic background: wild type) 0.703 ± 0.025.

For TCVYKKPERHKA [TCM62 C-terminal 12 aa], the protein stability index runs as follows: under setting [1], 0.707 ± 0.03; (genetic background: wild type) 0.701 ± 0.024.

As for TDNTVDKFDFYK [RPT3 C-terminal 12 aa], the protein stability index stood at 0.711 ± 0.016 under setting [1] and 0.71 ± 0.013 (genetic background: wild type).
